The source of these data is patent US20120045393A1 (priority 2009, published 2012).

Like-named read-outs stand apart in the source and are kept apart here. Non-standard residues stand in square brackets, D forms with d. Residues, ends and D or L forms follow the SMILES beside them. Primed or numbered codes have the meaning given here. *: point of attachment. DO3A10CM″ = chelating group at the N-terminus (X in the sequence tables); X1 = NC(=O)NNC(=O)[C@@H]1CCCN1C[C@H](Cc1ccc(C(=O)c2ccccc2)cc1)N*; DOTA = O=C(O)CN1CCN(CC(=O)O)CCN(CC(=O)*)CCN(CC(=O)O)CC1; Bpa = N[C@@H](Cc1ccc(C(=O)c2ccccc2)cc1)C(=O)O; d1Nal = N[C@H](Cc1cccc2ccccc12)C(=O)O; d2Nal = N[C@H](Cc1ccc2ccccc2c1)C(=O)O; His(1-Me) = 1-methylhistidine; DO3A10CM = not defined here; Bpa4 = non-natural residue; Amfe4 = not defined here; Hpgly = not defined here; azaGly = NNC(=O)O; Sar = CNCC(=O)O

Data set [1] is described as follows: In vitro metabolic stability in mouse liver homogenate at 37° C. The class given is in vitro ADME. To be noted: for remaining at 1 h, 0.3 mg/mL: female, Tac:NCr:Foxn1nu/nu, mouse, tissue homogenate, pH 7.2. The method, then: Livers from 10 female Tac:NCr:Foxn1^nu/nu mice were excised, rinsed with ice cold PBS (no Ca^++ or Mg^++) and weighed. The tissues were minced with scissors in Petri dishes on ice with Tris buffered saline (Pierce BupH™ Tris buffered saline packs, #28376; 25 mM Tris, 150 mM NaCl, pH 7.2). After mincing, the tissues were dounce homogenized, and the total volume adjusted with ice cold Tris buffer (4 mL for every gram of excised tissue). The homogenate was centrifuged at ˜4000×g for 10 min at 4° C. The supernatants were aliquoted into Eppendorf tubes on ice (200 and 100 μl volumes) and stored at −80° C. Kidney homogenates were similarly prepared. […] The mixture was centrifuged at 4° C. for 20 min at 20,000×g to precipitate the protein; 10 μL (˜7.6 μCi) of the supernatant was injected into the HPLC for the analysis. […] Peaks at these retention times were also observed in the in vivo plasma sample (FIG. 1). […] After 0 and 60 min, the sample was removed from the incubator, immediately cooled on ice and 2 μL of 10 mM EDTA and 0.2 mL of ice-cooled MeOH were added, mixing after each addition. The proteins in the sample were separated by centrifugation at 14,000 rpm for 20 min. The supernatant was harvested and, in the samples spiked with the ^177Lu-analog, the radioactivity was measured using a Capintec dose calibrator to determine recovery. The sample was then analyzed by HPLC. […] After 0 and 60 min, the sample was removed from the incubator, immediately cooled on ice and 2 μL of 10 mM EDTA and 0.24 mL of ice-cooled methanol was added, mixing after each addition. The proteins in the sample were separated by centrifugation at 14,000 rpm for 20 min. The supernatant was collected and analyzed by LC/MS as described earlier herein.

For data set [2], the target named is LHRH binding sites on EFO-27 human ovarian cancer cells (human). The experiment in a line: competition with [125I-Tyr8]BRU-2477 on EFO-27 cells.
In data set [3] the target is LHRH receptor (LHRH binding sites) on EFO-27 human ovarian cancer cells (human). The data set can be described thus: competition with [125I-Tyr8]BRU-2477 for binding to EFO-27 cells.
For data set [4] the target is unchanged. The experiment in a line: competition with [125I-Tyr8]BRU-2477, EFO-27 cells.
Data set [5] has the same target. The experiment in a line: competition with [125I-Tyr8]BRU-2477 for binding to EFO-27 cells. This is another data set of the same source.

Consider `N=C(N)NCCC[C@H](NC(=O)[C@@H](Cc1ccc2ccccc2c1)NC(=O)CN1CCN(CC(=O)O)CCN(CC(=O)O)CCN(CC(=O)O)CC1)C(=O)N[C@@H](Cc1c[nH]c2ccccc12)C(=O)N[C@@H](CO)C(=O)N[C@@H](Cc1c[nH]cn1)C(=O)N[C@H](CCCNC(=N)N)C(=O)N[C@@H](Cc1c[nH]c2ccccc12)C(=O)N[C@@H](Cc1ccc(C(=O)c2ccccc2)cc1)C(=O)N1CC[C@H]1C(=O)NNC(N)=O` [Lu-BRU-2993], for which the share remaining at 1 h, 0.3 mg/mL in data set [1] stood at 14.9 ± 13.2%.

`N=C(N)NCCC[C@H](NC(=O)[C@@H](Cc1ccc2ccccc2c1)NC(=O)CN1CCN(CC(=O)O)CCN(CC(=O)O)CCN(CC(=O)O)CC1)C(=O)N[C@@H](Cc1c[nH]c2ccccc12)C(=O)N[C@@H](CO)C(=O)N[C@@H](Cc1c[nH]cn1)C(=O)N[C@H](CCCNC(=N)N)C(=O)N[C@@H](Cc1c[nH]c2ccccc12)C(=O)N[C@@H](Cc1ccc(C(=O)c2ccccc2)cc1)CN1CCC[C@H]1C(=O)NNC(N)=O` [Lu-BRU-3081] ({DOTA}-[d2Nal]RWSH[dR]W-X1): in data set [1], the share remaining at 1 h, 0.3 mg/mL was 100%.

Turning to `N=C(N)NCCC[C@H](NC(=O)[C@@H](Cc1ccc2ccccc2c1)NC(=O)CN1CCN(CC(=O)O)CCN(CC(=O)O)CCN(CC(=O)O)CC1)C(=O)N[C@@H](Cc1c[nH]c2ccccc12)C(=O)N[C@@H](CO)C(=O)N[C@@H](Cc1c[nH]cn1)C(=O)N[C@H](CCCNC(=N)N)C(=O)N[C@@H](Cc1c[nH]c2ccccc12)C(=O)N[C@@H](Cc1ccc(C(=O)c2ccccc2)cc1)C(=O)N1CSC[C@H]1C(N)=O` [Lu-BRU-3072], the fraction remaining at 1 h, 0.3 mg/mL in data set [1] (liver homogenate at 37° C. for 60 min, mean ± SD, n = 3, read-out: % remaining (% of parent remaining)) is 98.5 ± 0.2%. The “Stabilized relative to parent?” value in data set [1] (liver homogenate at 37° C. for 60 min, compared to Lu-BRU-2813 or unstabilized peptide) was “Yes”.

On to DO3A10CM-[Sar][Amfe4]WSH[dR]W[Bpa4]P[azaGly]-NH2 (reading uncertain; also: printed as DO3A10CM-Sar-Amfe4-Trp-Ser-His-Darg-Trp-Bpa4-Pro-azaGly-NH2) [BRU-2756], for which the half-maximal effective concentration (EC50) in data set [2] and in data set [3] was 0.28 µM throughout.

For the molecule XHWSHXWXPX (as printed: DO3A10CM-Damfe4-His-Trp-Ser-His-Darg-Trp-Bpa4-Pro-azaGly-NH2) [BRU-2757], the 50% effective concentration (EC50) in data set [4], in data set [2] and in data set [3] was 0.26 µM each time.

For {DO3A10CM″}-[Sar][His(1-Me)]WSH[dR]W[Bpa]P[azaGly]-NH2 [BRU-2741], the concentration for a half-maximal effect (EC50) in data set [2] and in data set [3] was 2.99 µM throughout.

With XHWSHXWXPX (as printed: DO3A10CM-Dafe4-His-Trp-Ser-His-Darg-Trp-Bpa4-Pro-azaGly-NH2) [BRU-2810], the EC50 in data set [2] and in data set [3] was 0.98 µM throughout.

With XHWSHXWXPX (as printed: DO3A10CM-Dphe-His-Trp-Ser-His-Darg-Trp-Bpa4-Pro-azaGly-NH2) [BRU-2894], the EC50 in data set [2] and in data set [3] was 2 µM throughout.

B1: BRU-2696 (peptide)
peptide: XXHWSHXWXPX
modifications: N-terminal DO3A10CM; Gly-Abz4 linker before 1; Sar at 1; Darg at 6; Bpa4 at 8; azaGly-NH2 at 10
Regarding B1, the values for the EC50 in data set [4], in data set [5] and in data set [3] were 0.44 µM, 0.65 µM and 0.44 µM, respectively.

For DO3A10CM-G[Hpgly]HWSH[dR]W[Bpa]P[azaGly]-NH2 (reading uncertain; also: printed as DO3A10CM-Gly-Hpgly-His-Trp-Ser-His-Darg-Trp-Bpa4-Pro-azaGly-NH2) [BRU-2797], the EC50 in data set [4], in data set [2] and in data set [3] was 0.45 µM throughout.

In the case of DO3A10CM-G[d1Nal]HWSH[dR]W[Bpa4]P[azaGly]-NH2 (reading uncertain; also: printed as DO3A10CM-Gly-Dnal1-His-Trp-Ser-His-Darg-Trp-Bpa4-Pro-azaGly-NH2) [BRU-2766], the EC50 was 0.62 µM in data set [2], 0.65 µM in data set [5] and 0.62 µM in data set [3].

On to XHWSHXWXPX (as printed: DO3A10CM-Meala-His-Trp-Ser-His-Darg-Trp-Bpa4-Pro-azaGly-NH2) [BRU-2736], for which the concentration giving a half-maximal response (EC50) in data set [2] and in data set [3] was 1.42 µM throughout.
